In publication PMC4409568 (Neuron, 2015):
No end group written: not given here.

Columns and labels:
[1] = target: Arc(207-278) binding to TARPγ2 peptide (Rattus norvegicus, UniProt Q63053); settings: Figure S5C; chlorpromazine data not shown
[2] = target: T1, Arc N-lobe (207-277) (rat, UniProt Q63053 207-277); assay: pull-down
T1 sequence (looked up): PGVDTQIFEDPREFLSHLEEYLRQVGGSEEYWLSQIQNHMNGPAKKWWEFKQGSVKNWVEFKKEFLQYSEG

[3] = target: T2, RnArc (207-370), Arc GAG domain, wild type (rat, UniProt Q63053 207-370); assay: fluorescence polarisation
T2 sequence (looked up): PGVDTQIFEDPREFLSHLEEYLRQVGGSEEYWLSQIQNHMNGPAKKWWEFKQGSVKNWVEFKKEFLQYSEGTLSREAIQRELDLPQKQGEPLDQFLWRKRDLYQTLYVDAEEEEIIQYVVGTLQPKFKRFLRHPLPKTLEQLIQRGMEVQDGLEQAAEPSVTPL

[4] = target: T2, RnArc (207-370), Arc GAG domain, wild …; assay: pull-down

With `CN1CCN(CCCN2c3ccccc3Sc3ccc(C(F)(F)F)cc32)CC1` [Trifluoperazine] the “inhibition of Arc N-lobe binding” value [1] was “inhibited binding, but with lower affinity”.

TGLIENRPQSPAAGRTPVFVSPTPPPPPPPLPSALSTSSLRAS (domain or fragment, mouse, UniProt Q8R5H6 301-343, looked up) [GST-WAVE1 (aa301-343)]: binds [2].

RTPVFV (peptide, UniProt Q8R5H6 315-320, looked up) [WAVE1 peptide (aa315-320)]: binds [3].

{GST}-DRHKQLRATARATDYLQASAITRIPSYRYRYQRRSRSSSRSTEPS (domain or fragment, mouse, UniProt O88602 203-247, looked up) [GST-TARPγ2 fragment (203-247)]: binds [4].

B1: GST-TARPγ2 cytoplasmic tail (203-323) (domain or fragment, mouse, UniProt O88602 203-323, looked up)
chain: DRHKQLRATARATDYLQASAITRIPSYRYRYQRRSRSSSRSTEPSHSRDASPVGVKGFNTLPSTEISMYTLSRDPLKAATTPTATYNSDRDNSFLQVHNCIQKDSKDSLHANTANRRTTPV
B1: binds [3].
